{
  "source": "paper PMC7812869",
  "target": "80S-like ribosomes (yeast | yeast (endogenous in the yeast strain)) (UniProt Q07381)",
  "sequence (Q07381 whole entry, looked up)": "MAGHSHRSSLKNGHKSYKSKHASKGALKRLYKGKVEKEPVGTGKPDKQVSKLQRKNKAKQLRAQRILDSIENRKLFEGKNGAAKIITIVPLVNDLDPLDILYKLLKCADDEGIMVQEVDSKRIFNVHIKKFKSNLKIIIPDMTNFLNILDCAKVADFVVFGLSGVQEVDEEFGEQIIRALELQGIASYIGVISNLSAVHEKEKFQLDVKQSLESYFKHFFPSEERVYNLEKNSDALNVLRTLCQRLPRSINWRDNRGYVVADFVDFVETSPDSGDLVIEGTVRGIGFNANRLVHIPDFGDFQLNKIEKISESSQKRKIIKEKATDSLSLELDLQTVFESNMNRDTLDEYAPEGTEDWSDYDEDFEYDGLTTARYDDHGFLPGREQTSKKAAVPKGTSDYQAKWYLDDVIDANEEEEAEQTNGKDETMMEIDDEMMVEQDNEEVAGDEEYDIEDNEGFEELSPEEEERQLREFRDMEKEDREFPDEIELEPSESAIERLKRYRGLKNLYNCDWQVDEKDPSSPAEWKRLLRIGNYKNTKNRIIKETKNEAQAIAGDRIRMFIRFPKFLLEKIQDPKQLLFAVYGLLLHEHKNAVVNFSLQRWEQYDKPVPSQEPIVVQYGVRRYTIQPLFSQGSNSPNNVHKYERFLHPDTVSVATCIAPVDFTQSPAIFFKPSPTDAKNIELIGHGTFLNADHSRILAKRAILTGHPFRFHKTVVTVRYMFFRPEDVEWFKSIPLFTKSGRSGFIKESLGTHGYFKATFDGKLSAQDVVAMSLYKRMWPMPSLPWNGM",
  "assay": "co-sedimentation",
  "note": "Where “and” joins values, the source holds several entries; their conditions need not be identical. Equal values may be shown once.",
  "data": [
    {"substance": "Fap7+SUMO-Rps14 complex (from UniProt Q12055 1-197)", "values": [
      {"measurement": "fold change of bound Fap7 against Fap7 alone", "result": "2 fold and 3 fold"}
    ]}
  ]
}
